# Results published in patent publication US20140363428A1 (Chugai, published 2014).
# Numbering of substitutions follows the chain as printed.
# B1: F1650 (antibody)
# chain 1: QVQLQESGPGLVKPSETLSLTCAVSGHSISHDHAWSWVRQPPGEGLEWIGFISYSGITNYNPSLQGRVTISRDNSKNTLYLQMNSLRAEDTAVYYCARSLARTTAMDYWGEGTLVTVSSASTKGPSVFPLAPSSKSTSGGTAALGCLVKDYFPEPVTVSWNSGALTSGVHTFPAVLQSSGLYSLSSVVTVPSSSLGTQTYICNVNHKPSNTKVDKKVEPKSCDKTHTCPPCPAPELRGGPKVFLFPPKPKDTLYITREPEVTCVVVDVSHEDPEVKFNWYVDGVEVHNAKTKPREEQYNSTYRVVSVLTVLHQDWLNGKEYKCKVSNKALPAPIEKTISKAKGQPREPQVYTLPPSRDELTKNQVSLTCLVKGFYPSDIAVEWESNGQPENNYKTTPPVLDSDGSFFLYSKLTVDKSRWQQGNVFSCSVMHEALRYHVTKKELSLSP
# chain 2: DIQMTQSPSSLSASVGDSVTITCQASTDISSHLNWYQQKPGKAPELLIYYGSHLLSGVPSRFSGSGSGTDFTFTISSLEAEDAATYYCGQGNRLPYTFGQGTKVEIERTVAAPSVFIFPPSDEQLKSGTASVVCLLNNFYPREAKVQWKVDNALQSGNSQESVTEQDSKDSTYSLSSTLTLSKADYEKHKVYACEVTHQGLSSPVTKSFNRGEC
# B2: F1649 (antibody)
# chain 1: B1 chain 1 with R435P, E442D
# chain 2: B1 chain 2
# B3: IgG1-F1353 (antibody)
# heavy: B1 chain 1 with T256S, E258T, R435D, V438T, K440R
# light: not shown
# B4: IgG1-F1414 (antibody)
# heavy: B1 chain 1 with T309Q, R435D
# light: not shown
# B5: IgG1-F1366 (antibody)
# heavy: B1 chain 1 with T256S, R435D, V438F
# light: not shown
# B6: IgG1-F1376 (antibody)
# heavy: B1 chain 1 with R435H, K440Q, E442S
# light: not shown
# B7: IgG1-F1359 (antibody)
# heavy: B1 chain 1 with E258T, R435H, V438F, K440R
# light: not shown
# B8: IgG1-F1360 (antibody)
# heavy: B1 chain 1 with E258T, R435D, V438T
# light: not shown
# B9: IgG1-F1422 (antibody)
# heavy: B1 chain 1 with T256S, V310P, R435D, K440R
# light: not shown
# B10: IgG1-F1375 (antibody)
# heavy: B1 chain 1 with E258T, R435H, K440Q, E442S
# light: not shown
# B11: IgG1-F1357 (antibody)
# heavy: B1 chain 1 with E258T, R435H, V438T, K440R
# light: not shown
# B12: IgG1-F1372 (antibody)
# heavy: B1 chain 1 with R435D, V438T, K440R
# light: not shown
# B13: IgG1-F1358 (antibody)
# heavy: B1 chain 1 with E258T, R435H, V438F
# light: not shown
# B14: IgG1-F1424 (antibody)
# heavy: B1 chain 1 with T256S, V304E, V310P, R435D, K440R
# light: not shown
# B15: IgG1-F1377 (antibody)
# heavy: B1 chain 1 with T256S, R435H, K440Q, E442S
# light: not shown
# B16: IgG1-F1356 (antibody)
# heavy: B1 chain 1 with R237L, G238R, K241S, T256S, E258T, L330R, R435H, K440Q, E442S
# light: not shown
# B17: IgG1-F1415 (antibody)
# heavy: B1 chain 1 with Q313A, R435D
# light: not shown
# B18: IgG1-F1367 (antibody)
# heavy: B1 chain 1 with R435H, V438T, K440R
# light: not shown
# B19: IgG1-F1417 (antibody)
# heavy: B1 chain 1 with R435D, Y436W
# light: not shown
# B20: IgG1-F1421 (antibody)
# heavy: QVQLQESGPGLVKPSETLSLTCAVSGHSISHDHAWSWVRQPPGEGLEWIGFISYSGITNYNPSLQGRVTISRDNSKNTLYLQMNSLRAEDTAVYYCARSLARTTAMDYWGEGTLVTVSSASTKGPSVFPLAPSSKSTSGGTAALGCLVKDYFPEPVTVSWNSGALTSGVHTFPAVLQSSGLYSLSSVVTVPSSSLGTQTYICNVNHKPSNTKVDKKVEPKSCDKTHTCPPCPAPELLGGPSVFLFPPKPKDTLMISRTPEVTCVVVDVSHEDPEVKFNWYVDGVEVHNAKTKPREEQYNSTYRVVSVLTPLHQDWLNGKEYKCKVSNKALPAPIEKTISKAKGQPREPQVYTLPPSRDELTKNQVSLTCLVKGFYPSDIAVEWESNGQPENNYKTTPPVLDSDGSFFLYSKLTVDKSRWQQGNVFSCSVLHEALHWHYTQKSLSLSP
# light: not shown
# B21: IgG1-F1362 (antibody)
# heavy: B1 chain 1 with E258T, R435D, V438F
# light: not shown
# B22: IgG1-F1368 (antibody)
# heavy: B1 chain 1 with R435H, V438F
# light: not shown
# B23: IgG1-F1411 (antibody)
# heavy: B20 heavy with I334V, W436S
# light: not shown
# B24: IgG1-F1361 (antibody)
# heavy: B1 chain 1 with E258T, R435D, V438T, K440R
# light: not shown
# B25: IgG1-F1373 (antibody)
# heavy: B1 chain 1 with R435D, V438F
# light: not shown
# B26: IgG1-F1355 (antibody)
# heavy: B1 chain 1 with T256S, E258T, R435D, V438F, K440R
# light: not shown
# B27: IgG1-F1354 (antibody)
# heavy: B1 chain 1 with T256S, E258T, R435D, V438F
# light: not shown
# B28: IgG1-F1425 (antibody)
# heavy: B1 chain 1 with T256S, V305D, V310P, R435D, K440R
# light: not shown
# B29: IgG1-F1365 (antibody)
# heavy: B1 chain 1 with T256S, R435D, V438T
# light: not shown
# B30: IgG1-F1423 (antibody)
# heavy: B1 chain 1 with T256S, V304D, V310P, R435D, K440R
# light: not shown
# B31: IgG1-F1418 (antibody)
# heavy: B1 chain 1 with R435D, Y436W, K440R
# light: not shown
# B32: IgG1-F1364 (antibody)
# heavy: B1 chain 1 with T256S, R435H, V438F
# light: not shown
# Molecular target: T1, soluble human FcRn (human, UniProt P55899 24-297; P61769 21-119)
# T1 construct: Heterodimer of alpha chain and beta2-microglobulin; also called hFcRn
# Test: SPR (Biacore), pH 7.0
# T1 sequence (P55899 24-297 limits assumed, chain 1 of 2): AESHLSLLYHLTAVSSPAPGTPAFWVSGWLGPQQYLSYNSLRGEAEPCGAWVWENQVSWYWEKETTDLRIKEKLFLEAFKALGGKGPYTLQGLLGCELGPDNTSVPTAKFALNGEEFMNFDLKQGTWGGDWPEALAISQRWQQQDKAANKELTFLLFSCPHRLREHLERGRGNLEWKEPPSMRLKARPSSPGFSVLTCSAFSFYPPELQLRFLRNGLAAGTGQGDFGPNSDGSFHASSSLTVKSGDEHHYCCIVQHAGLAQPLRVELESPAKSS
# T1 sequence (P61769 21-119 limits assumed, chain 2 of 2): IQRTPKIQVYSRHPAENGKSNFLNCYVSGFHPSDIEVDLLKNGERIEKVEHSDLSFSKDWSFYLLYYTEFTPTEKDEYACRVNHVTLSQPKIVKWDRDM
row,Binder,Kd [nM]
1,B1,40
2,B2,37

# Molecular target: T1, soluble human FcRn
# Test: SPR (Biacore), pH 7.0, 25 C;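 further: antibodies captured on a protein L-coated CM4 chip with human FcRn injected as analyte, KD obtained from ka and kd fitted to sensorgrams, in sodium phosphate buffer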
# Description: An appropriate amount of protein L (ACTIGEN) was immobilized onto Sensor chip CM4 (GE Healthcare) by the amino coupling method, and the chip was allowed to capture an antibody of interest. Then, diluted FcRn solutions and running buffer (as a reference solution) were injected to allow human FcRn to interact with the antibody captured on the sensor chip. The running buffer used comprised 50 mmol/l sodium phosphate, 150 mmol/l NaCl, and 0.05% (w/v) Tween20 (pH 7.0). FcRn was diluted using each buffer. The chip was regenerated using 10 mmol/l glycine-HCl (pH 1.5). Assays were carried out exclusively at 25 degrees C. The association rate constant ka (1/Ms) and dissociation rate constant kd (1/s), both of which are kinetic parameters, were calculated based on the sensorgrams obtained in the assays, and KD (M) of each antibody for human FcRn was determined from these values. Each parameter was calculated using Biacore T100 Evaluation Software (GE Healthcare).
row,Binder,Kd [nM]
1,B3,430
2,B4,56
3,B5,120
4,B6,91
5,B7,130
6,B8,310
7,B9,19
8,B10,100
9,B11,280
10,B12,230
11,B13,91
12,B14,16
13,B15,83
14,B16,160
15,B17,59
16,B18,180
17,B19,59
18,B20,32
19,B21,140
20,B22,55
21,B23,170
22,B24,350
23,B25,87
24,B26,250
25,B27,230
26,B28,19
27,B29,310
28,B30,16
29,B31,75
30,B32,75
